Assay results published in PMC4809600, “The Influence of Chronic Wound Extracts on Inflammatory Cytokine and Histatin Stability” (PLoS ONE, 2016).

Columns and labels:
[1] = Stability in CWE with protease inhibitor cocktail (PIC), capillary zone electrophoresis; type: in vitro ADME, human; settings: 1 mg/ml in PBS mixed 1:1 with CWE (1 mg/ml protein, pool of 5 donors) in PBS containing PIC (final 1:140 v/v), 37°C, CZE, ratio to imidazole, 0 h = 100%
How it was run: (§1)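 Peptides or cytokines (1 mg/ml stock) mixed 1:1 with PBS or pooled chronic-wound extract (1 mg/ml protein, three pools of five donors), ±protease inhibitor cocktail, at 37 °C for up to 96 h. Analyzed by capillary zone electrophoresis (pH 2.5 phosphate, 200 nm), with peak ratio to imidazole standard relative to 0 h as % intact.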

[2] = Stability in PBS, capillary zone electrophoresis; type: physicochemical; settings: 1 mg/ml in PBS mixed 1:1 with PBS, 37°C, 96 h, CZE, UV 200 nm, ratio to imidazole internal standard, 0 h = 100%
Method: To determine the stability of the different peptides in CWE, histatins and cytokines were dissolved in PBS at 1 mg/ml. Histatins and cytokines were incubated in a 1:1 ratio with (i) PBS, (ii) CWE in PBS, or (iii) CWE in PBS containing PIC, in a total volume of 25 μl. Imidazole (Sigma-Aldrich) was added as an internal standard, with a final concentration of 100 μg/ml. The mixtures were incubated at 37°C, and samples were taken at 0, 24, 48, 72 and 96 h. For histatins containing mixtures, additional samples were taken after 2, 4, 8 and 16 h of incubation.
The samples were analyzed with a BioFocus 2000 capillary zone electrophoresis system (Bio-Rad Laboratories, Hercules, CA, USA) equipped with an uncoated fused-silica capillary of internal diameter 50 μm and a length of 24 cm. Samples were loaded by pressure injection (5 psi/sec). Separation was performed at 10 kV (cathode at the detector side) at 20°C using 0.1 M phosphate buffer (pH 2.5) as electrolyte and monitored continuously at 200 nm. Peaks were quantified with the BioFocus Integrator software. In order to quantify the percentage of intact peptides remaining after incubation with CWE, the ratios of histatins, rhIL-6 or rhCXCL8 to internal standard was set at 100% at 0h, and the ratios at the other incubation time points were related to this.

[3] = Stability in chronic wound extracts (CWE), capillary zone electrophoresis; type: in vitro ADME, human; settings: 37°C, CZE, 0 h = 100%; for Percentage intact, CWE 24h / Percentage intact, CWE 48h / Percentage intact, CWE 72h / Percentage intact, CWE 96h: 1 mg/ml in PBS mixed 1:1 with CWE (1 mg/ml protein, pool of 5 donors) in PBS, UV 200 nm, ratio to imidazole; for Starting material remaining intact after 96 h in CWE: 1 mg/ml in PBS mixed 1:1 with CWE (1 mg/ml protein, pools of 5 donors), mean of 3 independent experiments
How it was run: as §1

Row | Substance | Percentage intact, CWE + PIC 24h ([1]; experiment 1 of 3) [%] | Percentage intact, CWE + PIC 24h ([1]; experiment 2 of 3) [%] | Percentage intact, CWE + PIC 24h ([1]; experiment 3 of 3) [%] | Percentage intact, CWE + PIC 48h ([1]; experiment 1 of 3) [%] | Percentage intact, CWE + PIC 48h ([1]; experiment 2 of 3) [%] | Percentage intact, CWE + PIC 48h ([1]; experiment 3 of 3) [%] | Percentage intact, CWE + PIC 72h ([1]; experiment 1 of 3) [%] | Percentage intact, CWE + PIC 72h ([1]; experiment 2 of 3) [%] | Percentage intact, CWE + PIC 72h ([1]; experiment 3 of 3) [%] | Percentage intact, CWE + PIC 96h ([1]; experiment 1 of 3) [%] | Percentage intact, CWE + PIC 96h ([1]; experiment 2 of 3) [%] | Percentage intact, CWE + PIC 96h ([1]; experiment 3 of 3) [%] | Percentage intact, PBS 96h ([2]; experiment 1 of 3) [%] | Percentage intact, PBS 96h ([2]; experiment 2 of 3) [%] | Percentage intact, PBS 96h ([2]; experiment 3 of 3) [%] | Percentage intact, CWE 24h ([3]; experiment 1 of 3) [%] | Percentage intact, CWE 24h ([3]; experiment 2 of 3) [%] | Percentage intact, CWE 24h ([3]; experiment 3 of 3) [%] | Percentage intact, CWE 48h ([3]; experiment 1 of 3) [%] | Percentage intact, CWE 48h ([3]; experiment 2 of 3) [%] | other results
1 | IL-6 BioV: rhIL-6 from Biovision Inc, Cat nr. 4143 | 100.779 | 107.202 | 97.2326 | 100.572 | 97.0586 | 95.2476 | 93.9962 | 96.7281 | 94.831 | 90.2939 | 94.0745 | 94.3747 | 98.6817 | 79.9235 | 96.6267 | 86.2456 | 92.3596 | 87.2422 | 74.2431 | 71.0486 | Percentage intact, CWE 48h ([3]; experiment 3 of 3): 85.9071%; Percentage intact, CWE 72h ([3]; experiment 1 of 3): 64.7766%; Percentage intact, CWE 72h ([3]; experiment 2 of 3): 67.0796%; Percentage intact, CWE 72h ([3]; experiment 3 of 3): 78.8792%; Percentage intact, CWE 96h ([3]; experiment 1 of 3): 48.2486%; Percentage intact, CWE 96h ([3]; experiment 2 of 3): 62.2324%; Percentage intact, CWE 96h ([3]; experiment 3 of 3): 63.6069%; Starting material remaining intact after 96 h in CWE [3]: 58%
2 | IL-6 CS: rhIL-6 from Cell Systems Biotechnology, Cat nr. CS-C1066 | 96.0006 | 88.559 | 95.4415 | 84.6802 | 88.7813 | 87.103 | 88.9677 | 86.585 | 83.9413 | 78.2271 | 83.1651 | 79.7008 | 91.7071 | 94.938 | 88.4799 | 87.5606 | 96.7909 | 93.0609 | 82.5586 | 90.261 | Percentage intact, CWE 48h ([3]; experiment 3 of 3): 82.6368%; Percentage intact, CWE 72h ([3]; experiment 1 of 3): 76.7459%; Percentage intact, CWE 72h ([3]; experiment 2 of 3): 64.558%; Percentage intact, CWE 72h ([3]; experiment 3 of 3): 69.7531%; Percentage intact, CWE 96h ([3]; experiment 1 of 3): 67.9184%; Percentage intact, CWE 96h ([3]; experiment 2 of 3): 56.1934%; Percentage intact, CWE 96h ([3]; experiment 3 of 3): 44.5849%; Starting material remaining intact after 96 h in CWE [3]: 56%
3 | CXCL8 CS: rhCXCL8 from Cell Systems, Cat nr. CS-C1069, CXCL8 (1–77) | 104.747 | 99.4146 | 99.4369 | 98.6704 | 94.4506 | 91.0713 | 96.1244 | 88.7106 | 87.6839 | 87.7388 | 86.0248 | 85.3459 | 91.5892 | 91.4833 | 87.1812 | 88.8666 | 92.8064 | 96.6818 | 87.3559 | 86.1407 | Percentage intact, CWE 48h ([3]; experiment 3 of 3): 89.0325%; Percentage intact, CWE 72h ([3]; experiment 1 of 3): 83.3251%; Percentage intact, CWE 72h ([3]; experiment 2 of 3): 83.9414%; Percentage intact, CWE 72h ([3]; experiment 3 of 3): 84.6704%; Percentage intact, CWE 96h ([3]; experiment 1 of 3): 78.0414%; Percentage intact, CWE 96h ([3]; experiment 2 of 3): 80.0263%; Percentage intact, CWE 96h ([3]; experiment 3 of 3): 80.2041%; Starting material remaining intact after 96 h in CWE [3]: 79%
